Square brackets hold non-standard residues; d marks the D form. Ends that are not written are not given here. αMePhe(2-F) = C[C@](N)(Cc1ccccc1F)C(=O)O; αMeF = C[C@](N)(Cc1ccccc1)C(=O)O; Aib = CC(C)(N)C(=O)O
T1: human gastric inhibitory peptide receptor (GIPR) (human, UniProt P48546 22-466)
T1 sequence (looked up): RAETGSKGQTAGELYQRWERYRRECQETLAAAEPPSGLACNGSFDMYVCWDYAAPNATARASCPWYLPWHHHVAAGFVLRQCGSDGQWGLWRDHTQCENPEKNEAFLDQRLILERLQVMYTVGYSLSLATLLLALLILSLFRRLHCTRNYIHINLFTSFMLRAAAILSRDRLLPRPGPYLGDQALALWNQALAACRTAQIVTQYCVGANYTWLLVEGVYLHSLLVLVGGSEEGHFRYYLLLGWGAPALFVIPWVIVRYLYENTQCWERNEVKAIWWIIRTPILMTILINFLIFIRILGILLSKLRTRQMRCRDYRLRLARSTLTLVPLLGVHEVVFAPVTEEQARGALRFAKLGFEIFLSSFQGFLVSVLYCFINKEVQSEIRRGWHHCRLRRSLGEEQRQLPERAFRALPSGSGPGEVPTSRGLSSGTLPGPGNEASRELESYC

B1: Example 144 (peptide)
peptide: Y[Aib]EGT[αMeF]TSDYSIXLDKKAQH[Aib]FIEYLIEGGPSSGAPPPS-NH2
modifications: not fully specified (residues 13, 17); printed as Y-Aib-EGT-αMeF-TSDYSI-αMeF-LDKK((2-[2-(2-Amino-ethoxy)-ethoxy]-acetyl)2-(γ-Glu)-CO-(CH2)18-CO2H)AQH-Aib-FIEYLIEGGPSSGAPPPS-NH2
B2: Example 145 (peptide)
peptide: Y[Aib]EGT[αMeF]TSDASIXLDKKAQ[Aib]AFIEYLIEGGPSSGAPPPS-NH2
modifications: not fully specified (residues 13, 17); printed as Y-Aib-EGT-αMeF-TSDASI-αMeF-LDKK((2-[2-(2-Amino-ethoxy)-ethoxy]-acetyl)2-(γ-Glu)-CO-(CH2)18-CO2H)AQ-Aib-AFIEYLIEGGPSSGAPPPS-NH2
B3: Example 146 (peptide)
peptide: Y[Aib]EGT[αMePhe(2-F)]TSDYSIXLDEKAQ[Aib]EFIQYLIEGGPSSGAPPPS-NH2
modifications: not fully specified (residues 13, 17); printed as Y-Aib-EGT-αMeF(2F)-TSDYSI-αMeF-LDEK((2-[2-(2-Amino-ethoxy)-ethoxy]-acetyl)2-(γ-Glu)-CO-(CH2)18-CO2H)AQ-Aib-EFIQYLIEGGPSSGAPPPS-NH2
B4: Example 148 (peptide)
peptide: Y[Aib]EGT[αMePhe(2-F)]TSDYSIXLDEKAQ[Aib]EFIAYLIEGGPSSGAPPPS-NH2
modifications: not fully specified (residues 13, 17); printed as Y-Aib-EGT-αMeF(2F)-TSDYSI-αMeF-LDEK((2-[2-(2-Amino-ethoxy)-ethoxy]-acetyl)2-(γ-Glu)-CO-(CH2)18-CO2H)AQ-Aib-EFIAYLIEGGPSSGAPPPS-NH2
B5: Example 149 (peptide)
peptide: Y[Aib]EGT[αMePhe(2-F)]TSDYSIXLDEKAQ[Aib]EFIVYLIEGGPSSGAPPPS-NH2
modifications: not fully specified (residues 13, 17); printed as Y-Aib-EGT-αMeF(2F)-TSDYSI-αMeF-LDEK((2-[2-(2-Amino-ethoxy)-ethoxy]-acetyl)2-(γ-Glu)-CO-(CH2)18-CO2H)AQ-Aib-EFIVYLIEGGPSSGAPPPS-NH2
B6: Example 150 (peptide)
peptide: Y[Aib]EGT[αMePhe(2-F)]TSDYSIXLDEKAQ[Aib]EFISYLIEGGPSSGAPPPS-NH2
modifications: not fully specified (residues 13, 17); printed as Y-Aib-EGT-αMeF(2F)-TSDYSI-αMeF-LDEK((2-[2-(2-Amino-ethoxy)-ethoxy]-acetyl)2-(γ-Glu)-CO-(CH2)18-CO2H)AQ-Aib-EFISYLIEGGPSSGAPPPS-NH2
B7: Example 151 (peptide)
peptide: Y[Aib]EGT[αMePhe(2-F)]TSDYSIXLDEKAQ[Aib]EFIPYLIEGGPSSGAPPPS-NH2
modifications: not fully specified (residues 13, 17); printed as Y-Aib-EGT-αMeF(2F)-TSDYSI-αMeF-LDEK((2-[2-(2-Amino-ethoxy)-ethoxy]-acetyl)2-(γ-Glu)-CO-(CH2)18-CO2H)AQ-Aib-EFIPYLIEGGPSSGAPPPS-NH2

These binders were tested against T1, human gastric inhibitory peptide … (assay: cell-based or functional assay).
With B1 the “hGIPR cAMP EC50 ratio” value was 3.6 and the “hGIPR cAMP Rel EC50” value was 0.0375 nM.
For B2, the “hGIPR cAMP EC50 ratio” value was 2.46 and the “hGIPR cAMP Rel EC50” value was 0.0514 nM.
For B3, the “hGIPR cAMP EC50 ratio” value was 1.98 and the “hGIPR cAMP Rel EC50” value was 0.0583 nM.
In the case of B4, the “hGIPR cAMP EC50 ratio” value is reported as 2.7 and the “hGIPR cAMP Rel EC50” value is reported as 0.043 nM.
For B5, the “hGIPR cAMP EC50 ratio” value was 1.82 and the “hGIPR cAMP Rel EC50” value was 0.0711 nM.
In the case of B6, the “hGIPR cAMP EC50 ratio” value is reported as 2.64 and the “hGIPR cAMP Rel EC50” value is reported as 0.0511 nM.
For B7, the “hGIPR cAMP EC50 ratio” value was 0.262 and the “hGIPR cAMP Rel EC50” value was 0.41 nM.

The binders below were run against human GLP-1 receptor (GLP-1R) (human, UniProt P43220 24-463) (assay: cell-based or functional assay).
For B1, the “hGLP1R cAMP EC50 ratio” value was 0.851 and the “hGLP1R cAMP Rel EC50” value was 0.0608 nM.
With B2 the “hGLP1R cAMP EC50 ratio” value was 1.22 and the “hGLP1R cAMP Rel EC50” value was 0.0427 nM.
In the case of B3, the “hGLP1R cAMP EC50 ratio” value is reported as 0.951 and the “hGLP1R cAMP Rel EC50” value is reported as 0.0604 nM.
In the case of B4, the “hGLP1R cAMP EC50 ratio” value is reported as 0.859 and the “hGLP1R cAMP Rel EC50” value is reported as 0.0626 nM.
With B5 the “hGLP1R cAMP EC50 ratio” value was 0.484 and the “hGLP1R cAMP Rel EC50” value was 0.0916 nM.
B6 was tested, and the “hGLP1R cAMP EC50 ratio” value was 0.79 and the “hGLP1R cAMP Rel EC50” value was 0.0575 nM.
For B7, the “hGLP1R cAMP EC50 ratio” value was 0.0278 and the “hGLP1R cAMP Rel EC50” value was 1.6 nM.

— patent publication US20220048967A1 (published 2022)
